Tests used:
human CD117 ectodomain [1] = molecular target: T1, human CD117 ectodomain (human, UniProt P10721 26-524, biotinylated (BirA co-expression) where captured on streptavidin biosensors); test: ELISA, human CD117, bivalent Fc fusion
T1 construct: extracellular domain; also called cKIT; full length AviTagged CD117 ectodomain; not shown: C-terminal AviTag or His tag

[2] = molecular target: T2, human CD117 on cells (SKMEL-3 cells, CD34+ HSC) (human, UniProt P10721 26-976); test: flow cytometry, CD34+ HSC, bivalent Fc
T2 construct: whole, on cells; also called CD117 on cell surfaces; CD117+ cells

human CD117 ectodomain [3] = molecular target: T1, human CD117 ectodomain; test: BLI (Octet), biotinylated ectodomain on SA biosensor, 1:1 global fit, bivalent Fc
From the text: (§1) Pre-equilibrated streptavidin biosensors (SA, from Sartorius) were coated with biotinylated CD117 ectodomain by dipping the biosensors into wells containing an optimized dilution of human or cyno CD117 ectodomain. After re-equilibrating the biosensor tips in assay buffer, the biosensors were dipped into supernatant containing the VHH antibodies to allow association between the antibodies and the CD117 ectodomain. Finally, the biosensors were dipped into the assay buffer. The VHH antibodies disassociated from the CD117 ectodomain if association occurred. The association and dissociation of each VHH antibody was characterized qualitatively to identify VHHs that could bind both human and cyno CD117 ectodomains.
(§2) For example, kinetics parameters of the top VHH antibodies for binding to human CD117 and cynomolgus monkey CD117 ectodomain were obtained from the Octet® analysis by Biolayer Interferometry as described above. A minimum of three concentrations of purified VHH antibodies were tested per ectodomain target. The Octet® software was used to perform a global kinetic fit across all concentrations using a 1:1 binding model. This allowed determination of the kinetic parameters, association rate (kₒₙ), dissociation rate (koff) and equilibrium constant (KD) for the 9 antibodies of interest. Total chi-squared (X²) was also examined to determine the goodness of fit for the software's kinetic model.

[4] = molecular target: cynomolgus monkey CD117 ectodomain (cynomolgus monkey); test: as above
[5] = molecular target: T2, human CD117 on cells (SKMEL-3 cells, …); test: flow cytometry, skMEL-3 cells, bivalent Fc
human CD117 ectodomain [6] = molecular target: T1, human CD117 ectodomain; test: BLI (Octet), biotinylated ectodomain on SA biosensor, 1:1 global fit, monomeric Fc
From the text: as §1, §2

[7] = molecular target: T2, human CD117 on cells (SKMEL-3 cells, …); test: flow cytometry, skMEL-3 cells, monomeric Fc
human CD117 ectodomain [8] = molecular target: T1, human CD117 ectodomain; test: ELISA, human CD117, monovalent Fc fusion
[9] = molecular target: T2, human CD117 on cells (SKMEL-3 cells, …); test: flow cytometry, CD34+ HSC, monomeric Fc
[10] = molecular target: cynomolgus monkey CD117 ectodomain (cynomolgus monkey); test: BLI (Octet), biotinylated ectodomain on SA biosensor, 1:1 global fit, monomeric Fc
[11] = molecular target: T3, truncated CD117 ectodomain, Domain 1 (UniProt P10721 26-112, limits assumed, biotinylated); test: BLI, truncated ectodomain on SA biosensor
T3 construct: domain: Domain 1; not shown: AviTag
Description: To identify the approximate binding epitopes of the VHH antibodies, truncated ectodomains were expressed as fusion polypeptides with an AviTag. Additionally, biotin is added to the protein during expression to allow capture of the material onto Streptavidin-coated (SA) biosensors. SA biosensors (Sartorius) were incubated with one of the truncated ectodomains. Full length CD117 ectodomain was used as a control. […] Except for P29 and P37, all others bind Domains 1-2 and Domains 1-3. Except for P37, all others bind Domains 1-4.

T3 sequence (P10721 26-112 limits assumed): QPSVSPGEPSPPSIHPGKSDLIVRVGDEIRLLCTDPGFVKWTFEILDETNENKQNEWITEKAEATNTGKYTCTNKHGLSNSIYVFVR
T2 sequence (P10721 26-976): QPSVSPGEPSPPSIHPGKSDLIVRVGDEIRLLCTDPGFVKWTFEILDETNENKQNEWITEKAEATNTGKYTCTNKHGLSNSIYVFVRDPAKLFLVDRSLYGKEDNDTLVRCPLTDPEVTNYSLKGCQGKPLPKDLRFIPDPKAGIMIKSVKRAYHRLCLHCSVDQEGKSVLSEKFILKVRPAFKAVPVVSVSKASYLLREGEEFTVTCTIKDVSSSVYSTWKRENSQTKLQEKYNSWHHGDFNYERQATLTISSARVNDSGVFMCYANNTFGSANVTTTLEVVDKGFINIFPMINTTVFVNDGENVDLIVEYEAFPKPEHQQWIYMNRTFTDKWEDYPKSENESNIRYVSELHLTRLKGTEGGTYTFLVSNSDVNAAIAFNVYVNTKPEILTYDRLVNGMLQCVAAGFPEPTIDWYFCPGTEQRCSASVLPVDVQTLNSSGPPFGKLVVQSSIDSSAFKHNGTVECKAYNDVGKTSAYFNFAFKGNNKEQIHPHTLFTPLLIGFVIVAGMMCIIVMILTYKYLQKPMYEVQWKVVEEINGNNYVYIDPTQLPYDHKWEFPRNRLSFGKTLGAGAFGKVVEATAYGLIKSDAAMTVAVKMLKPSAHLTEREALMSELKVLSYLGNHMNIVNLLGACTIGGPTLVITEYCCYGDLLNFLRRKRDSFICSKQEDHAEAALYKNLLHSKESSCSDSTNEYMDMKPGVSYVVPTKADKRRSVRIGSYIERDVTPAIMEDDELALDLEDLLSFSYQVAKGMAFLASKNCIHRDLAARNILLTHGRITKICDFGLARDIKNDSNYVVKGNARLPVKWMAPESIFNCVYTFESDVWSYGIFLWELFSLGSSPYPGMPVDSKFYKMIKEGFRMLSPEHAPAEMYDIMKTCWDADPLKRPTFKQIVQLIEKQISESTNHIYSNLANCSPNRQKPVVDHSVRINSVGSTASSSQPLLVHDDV
T1 sequence (P10721 26-524): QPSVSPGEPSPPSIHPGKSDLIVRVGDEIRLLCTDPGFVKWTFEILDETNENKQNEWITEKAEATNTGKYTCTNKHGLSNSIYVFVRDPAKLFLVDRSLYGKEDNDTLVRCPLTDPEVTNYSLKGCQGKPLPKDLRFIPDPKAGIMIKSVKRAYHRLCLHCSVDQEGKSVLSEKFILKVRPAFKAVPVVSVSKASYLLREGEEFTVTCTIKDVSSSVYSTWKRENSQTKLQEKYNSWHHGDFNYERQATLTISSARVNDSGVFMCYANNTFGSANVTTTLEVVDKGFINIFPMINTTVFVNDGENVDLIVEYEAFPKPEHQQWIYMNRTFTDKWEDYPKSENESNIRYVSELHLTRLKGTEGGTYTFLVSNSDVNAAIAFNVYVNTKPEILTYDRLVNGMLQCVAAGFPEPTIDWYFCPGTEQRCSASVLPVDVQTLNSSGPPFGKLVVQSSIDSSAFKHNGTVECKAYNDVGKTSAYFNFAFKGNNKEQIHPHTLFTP

Kd (human CD117 ectodomain [1]) [nM] | EC50 [2] [nM] | Kd (human CD117 ectodomain [3]) [nM] | Kd [4] [nM] | EC50 [5] [nM] | binding result [11] | other results | Binder
0.06 | 50 | 0.0446 | 0.0112 | 50 | – | – | P-0059 (Fc fusion, also called P59; bivalent form of P12; not shown: Fc fragment) QVQLVESGGGLVQAGGSLRLSCTASGDTFSSYSMGWFRQGPGKEREFVGGIRWSGGTTYYADSVKGRFTISRDNAKNTVYLQMNSLKREDTAVYYCAAVRRRWLIWQEEEYDYWGQGTLVTVSS
– | – | – | – | – | – | Kd (human CD117 ectodomain [6]): 49.2 nM; EC50 [7]: > 10 nM; Kd (human CD117 ectodomain [8]): 1.04 nM; EC50 [9]: > 10 nM | P-0012 (Fc fusion, Any second Fc chain without VHH is not described in the text; also called monovalent form of P12; not shown: Fc fragment) QVQLVESGGGLVQAGGSLRLSCTASGDTFSSYSMGWFRQGPGKEREFVGGIRWSGGTTYYADSVKGRFTISRDNAKNTVYLQMNSLKREDTAVYYCAAVRRRWLIWQEEEYDYWGQGTLVTVSS
– | – | – | – | – | – | Kd (human CD117 ectodomain [6]): 16.5 nM; Kd [10]: 54.9 nM; EC50 [7]: 2 nM; Kd (human CD117 ectodomain [8]): 0.28 nM; EC50 [9]: 2 nM | P-0010 (Fc fusion, Any second Fc chain without VHH is not described in the text; also called monovalent form of P10; not shown: Fc fragment) QVQLVESGGGLVQAGGSLRLSCVASGRTFSSYAMGWFRQGPGKEREFAAAILSNGLTTYYADSVKGRFTISRDNAKDTVYLQMNSLKPEDTANYYCAAAFTPEFRDGGIWDDASVDYWGQGTQVTVSS
– | – | – | – | – | no binding | – | P10 (VHH, also called P10/P53; anti-CD117 VHH P10) VHH: QVQLVESGGGLVQAGGSLRLSCVASGRTFSSYAMGWFRQGPGKEREFAAAILSNGLTTYYADSVKGRFTISRDNAKDTVYLQMNSLKPEDTANYYCAAAFTPEFRDGGIWDDASVDYWGQGTQVTVSS
0.16 | 1 | < 0.001 | 0.00136 | 1 | – | – | P-0053 (Fc fusion, also called P53; bivalent form of P10; not shown: Fc fragment) QVQLVESGGGLVQAGGSLRLSCVASGRTFSSYAMGWFRQGPGKEREFAAAILSNGLTTYYADSVKGRFTISRDNAKDTVYLQMNSLKPEDTANYYCAAAFTPEFRDGGIWDDASVDYWGQGTQVTVSS
– | – | – | – | – | – | Kd (human CD117 ectodomain [6]): 44.7 nM; Kd [10]: 8.11 nM; EC50 [7]: 10 nM; Kd (human CD117 ectodomain [8]): 1.32 nM; EC50 [9]: 10 nM | P-0027 (Fc fusion, Any second Fc chain without VHH is not described in the text; also called monovalent form of P27; not shown: Fc fragment) EVQLVESGGGLVRAGGSLRLSCAASGRTTFSTYWLGWFRQAPGKNREFVAAISWSAGMAYYQDSKGRFTISRDNTKNTAYLQMNSLQPEDTAVYYCAAGRFHPIRVDTALYWAQGTQVTVSS
0.14 | 2 | 0.24 | 2.16 | 2 | – | – | P-0060 (Fc fusion, also called P60; bivalent form of P27; not shown: Fc fragment) EVQLVESGGGLVRAGGSLRLSCAASGRTTFSTYWLGWFRQAPGKNREFVAAISWSAGMAYYQDSKGRFTISRDNTKNTAYLQMNSLQPEDTAVYYCAAGRFHPIRVDTALYWAQGTQVTVSS
– | – | – | – | – | no binding | – | P27 (VHH, also called P27/P60; anti-CD117 VHH P27) VHH: EVQLVESGGGLVRAGGSLRLSCAASGRTTFSTYWLGWFRQAPGKNREFVAAISWSAGMAYYQDSKGRFTISRDNTKNTAYLQMNSLQPEDTAVYYCAAGRFHPIRVDTALYWAQGTQVTVSS
0.22 | 1 | 0.00124 | 0.961 | 1 | – | – | P-0055 (Fc fusion, also called P55; bivalent form of P31; not shown: Fc fragment) EVQLVESGGGLVRAGGSLRLSCAASGRTFTYDARAWFRQAPGKEREFVAAISWSGGSTYYPNSMKGRFTISRDNAKNTVYLQMNSLKPEDTAVYYCAADESFPAYYSDYALYRYWGQGTLVTVSS
– | – | – | – | – | no binding | – | P31 (VHH, also called P31/P55; anti-CD117 VHH P31) VHH: EVQLVESGGGLVRAGGSLRLSCAASGRTFTYDARAWFRQAPGKEREFVAAISWSGGSTYYPNSMKGRFTISRDNAKNTVYLQMNSLKPEDTAVYYCAADESFPAYYSDYALYRYWGQGTLVTVSS
– | – | – | – | – | – | Kd (human CD117 ectodomain [6]): 1.86 nM; Kd [10]: 8.01 nM; Kd (human CD117 ectodomain [8]): 1.49 nM | P-0032 (Fc fusion, Any second Fc chain without VHH is not described in the text; also called monovalent form of P32; not shown: Fc fragment) QVQLVESGGGLVQAGDSLRLSCAASGRTFSSYAMGWFRQAPGKEREFVASITSSGLVAYYGDSVEARFTISRDNAKNTVYLQMDSLKPEDTAVYYCAARQYVGSGSYYLKKEGGYEYWGPGTQVTVSS
0.21 | – | 0.00215 | 1.7 | – | – | – | P-0057 (Fc fusion, the alignment instead labels 'P35/P57' and 'P32/P56'; also called P57; not shown: Fc fragment) QVQLVESGGGLVQAGDSLRLSCAASGRTFSSYAMGWFRQAPGKEREFVASITSSGLVAYYGDSVEARFTISRDNAKNTVYLQMDSLKPEDTAVYYCAARQYVGSGSYYLKKEGGYEYWGPGTQVTVSS
– | – | – | – | – | no binding | – | P32 (VHH, also called anti-CD117 VHH P32) VHH: QVQLVESGGGLVQAGDSLRLSCAASGRTFSSYAMGWFRQAPGKEREFVASITSSGLVAYYGDSVEARFTISRDNAKNTVYLQMDSLKPEDTAVYYCAARQYVGSGSYYLKKEGGYEYWGPGTQVTVSS
0.21 | 2 | 0.00126 | 0.0112 | 1 | – | – | P-0072 (Fc fusion, also called P72; bivalent form of P38; not shown: Fc fragment) EVQLVESGGGLVQAGGSLRLSCAASGRTSGSYVMGWFRQAPGKEREFVAAISWSAGMTYYADSVKGRFTISRDNAKNTVYLQMNSLKPEDTAVYYCAADQRGVPAYYSDYALYDYWGQGTQVTVSS
– | – | – | – | – | no binding | – | P38 (VHH, also called P38/P72; anti-CD117 VHH P38) VHH: EVQLVESGGGLVQAGGSLRLSCAASGRTSGSYVMGWFRQAPGKEREFVAAISWSAGMTYYADSVKGRFTISRDNAKNTVYLQMNSLKPEDTAVYYCAADQRGVPAYYSDYALYDYWGQGTQVTVSS
0.36 | 10 | 0.602 | 0.647 | 3 | – | – | P-0056 (Fc fusion, the alignment instead labels 'P35/P57' and 'P32/P56'; also called P56; not shown: Fc fragment) QVQLVESGGGLVQAGGSLRLSCAASGGTFSIYPVGWFRQAPGKQREFVAAIGWSASGTYYGDSVEGRFTVSRDNARSTVYLRMSSLKPDDTAVYYCAAASGSNWRLGAIDEYDSWGQGTQVTVSS
– | – | – | – | – | no binding | – | P35 (VHH, also called anti-CD117 VHH P35) VHH: QVQLVESGGGLVQAGGSLRLSCAASGGTFSIYPVGWFRQAPGKQREFVAAIGWSASGTYYGDSVEGRFTVSRDNARSTVYLRMSSLKPDDTAVYYCAAASGSNWRLGAIDEYDSWGQGTQVTVSS
0.54 | > 50 | 0.00682 | 19.8 | > 50 | – | – | P-0054 (Fc fusion, also called P54; bivalent form of P29; not shown: Fc fragment) QVHLVESGGGLVQAGGSLGLSCAASGHTFSNYAMGWFRQAPGKEREFVAAISWSGGSTLYADSVKGRFTISRDNGENTVYLQMNSLKPEDTAVYYCALDSTGVYGTGYVSSRKGRYEYWGQGTLVTVSS
– | – | – | – | – | – | Kd (human CD117 ectodomain [6]): 37.4 nM; EC50 [7]: > 50 nM; Kd (human CD117 ectodomain [8]): 2.48 nM; EC50 [9]: 50 nM | P-0029 (Fc fusion, Any second Fc chain without VHH is not described in the text; also called monovalent form of P29; not shown: Fc fragment) QVHLVESGGGLVQAGGSLGLSCAASGHTFSNYAMGWFRQAPGKEREFVAAISWSGGSTLYADSVKGRFTISRDNGENTVYLQMNSLKPEDTAVYYCALDSTGVYGTGYVSSRKGRYEYWGQGTLVTVSS
0.33 | 50 | 0.00189 | 0.00166 | 3 | – | – | P-0058 (Fc fusion, also called P58; bivalent form of P37; not shown: Fc fragment) QVQLVESGGGLVQAGDSLRLSCAVSGRTLSNYFMAWLRQAPGKEREFVAAIHWSLGSTYYQDPVKGRFTISRDKAKNTVYLQMNTLKPEDTATYICAAGQHLSGLGGSAWSIEGDYWGQGTQVTVSS

Source: patent US20260137802A1 (CRISPR THERAPEUTICS, published 2026)
